Reference: article PMC8999913

Target: VAP-A (VAMP-associated protein A) (UniProt Q9P0L0)
Assay: anti-GFP co-IP after DSP crosslinking, VAP-A blot
Conditions: reference: WT, sorbitol-treated; sites S315

- binding against the reference: weaker
Substance: CERT (ceramide transport protein) (from UniProt Q9Y5P4) S315A, sorbitol-treated
